In the assay the target is IL-1 receptors on fibroblasts (human) (UniProt P14778). Briefly: cell-based or functional assay.
Sequence of UniProt P14778 (P14778 18-569): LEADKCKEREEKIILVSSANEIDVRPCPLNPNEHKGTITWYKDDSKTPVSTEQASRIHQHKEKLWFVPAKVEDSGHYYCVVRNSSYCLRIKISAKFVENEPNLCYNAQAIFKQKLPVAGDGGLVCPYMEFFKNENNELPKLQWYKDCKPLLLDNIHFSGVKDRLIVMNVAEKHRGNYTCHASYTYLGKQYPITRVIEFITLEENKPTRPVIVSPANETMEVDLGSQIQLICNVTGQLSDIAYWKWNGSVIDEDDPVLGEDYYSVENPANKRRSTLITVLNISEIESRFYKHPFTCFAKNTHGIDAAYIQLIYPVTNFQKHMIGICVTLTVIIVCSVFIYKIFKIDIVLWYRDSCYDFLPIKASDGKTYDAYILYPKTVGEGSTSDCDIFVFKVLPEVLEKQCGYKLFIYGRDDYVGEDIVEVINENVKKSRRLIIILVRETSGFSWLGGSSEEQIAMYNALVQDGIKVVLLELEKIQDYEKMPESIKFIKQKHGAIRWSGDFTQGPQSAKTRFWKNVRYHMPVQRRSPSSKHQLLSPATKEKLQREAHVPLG

On to “rhIL-1L1 Form B (from UniProt Q9UBH0 1-155) (ligand)”, for which the IL-1-like activity: IL-6 secretion by fibroblasts and endothelial cells (ELISA) (% of the activity of 0.1 nM IL-1b) is < 1.

“recombinant human IL-1 receptor antagonist (rhIL-1ra) (from UniProt P18510 28-177) (ligand)”: the IL-6 production from fibroblasts in response to 0.1 nM IL-1b (ELISA) was determined as 95 % reduction.

For the origin of these results see US20060183161A1.
